Target: human Kv2.1 (human) (UniProt Q14721)
Assay: cell-based or functional assay

human Kv2.1 (from UniProt Q14721 1-858)
V0.5 of the activation voltage curve (Boltzmann fit of G/Gmax), whole-cell patch clamp on CHO cells: 10.8 mV
inactivation time constant of the outward current, whole-cell patch clamp on CHO cells: 7.17 ms
